Where a chain is given by its changes, count along the chain named. One block for each binder: values may come before it.
Columns and labels:
[1] = molecular target: T1, recombinant human CD79b protein (human, UniProt P40259 29-159, limits assumed); assay: Octet assay
T1 sequence (looked up): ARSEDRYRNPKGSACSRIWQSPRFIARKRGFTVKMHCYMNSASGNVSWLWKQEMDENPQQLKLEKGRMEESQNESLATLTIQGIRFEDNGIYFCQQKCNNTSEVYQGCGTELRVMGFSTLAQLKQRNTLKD

[2] = molecular target: T1, recombinant human CD79b protein; assay: ELISA on recombinant human CD79b protein
[3] = molecular target: T1, recombinant human CD79b protein; assay: EC50 column of the drawn table; the table does not name the assay, the text gives an ELISA on recombinant human CD79b protein (FIG. 2B)
[4] = molecular target: T2, human CD79b expressed on cells (human, UniProt P40259 29-229); assay: ELISA on mouse fibroblast L cells expressing human CD79b
T2 construct: whole, on cells; also called human CD79b expressed on mouse fibroblast L cells; CD79b on B cell lymphoma cell lines (Daudi, SUDHL6)
T2 sequence (looked up): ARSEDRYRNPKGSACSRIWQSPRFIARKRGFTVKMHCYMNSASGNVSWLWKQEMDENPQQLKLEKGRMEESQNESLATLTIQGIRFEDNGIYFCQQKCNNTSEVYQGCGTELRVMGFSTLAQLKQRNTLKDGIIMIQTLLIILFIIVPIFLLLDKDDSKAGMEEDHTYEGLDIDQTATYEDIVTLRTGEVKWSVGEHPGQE
Source text: Binding of anti-CD79b antibodies to human CD79b: Full length anti-CD79b monoclonal antibodies (clones 5B and 28B) isolated from hybridoma supernatants were used to test binding to human CD79b expressed on mouse fibroblast L cells by ELISA (FIG. 7).

B2: anti-CD79b monoclonal antibody clone 5B (antibody, V domains shown)
VH: EVQLQESGAELVKPGASVKMSCKASGYTFTSYWMHWVKQRPGQGLEWIGAIDPSDSYTGYNQKFKGKATLTVDTSSSTAYMHLSSLTSEDSAVYFCTRSYYGNSWFDYWGQGTLVTVSA
VL: DIVLTQSPASLAVSLGQRATISCKASQSVDYEGDSYMNWYQQKPGQPPKLLIYAASNLESGIPARFSGSGSGTDFTLNIHPVEEEDAATYHCQQSNEDPFTFGGGTKLEIK
notes: Full length monoclonal antibody isolated from hybridoma supernatant
- EC50 [4]: 0.0409 µg/mL
- EC50 (read off the curve) [4]: ~0.04 µg/mL

B3: anti-CD79b monoclonal antibody clone 28B (antibody, V domains shown)
VH: B2 VH with D107A
VL: B2 VL with E32D, A54V, H91Y, G104S, K111N
notes: as for B2
- EC50 [4]: 0.0252 µg/mL
- EC50 (read off the curve) [4]: ~0.02 µg/mL

Results, then the binder that gave them:

- Kd [1]: 2 nM
- EC50 (read off the curve) [2]: ~0.03 µg/mL
- EC50 [3]: 0.0301 µg/mL
B1: anti-human CD79b monoclonal antibody clone 45 (IgG2) (antibody, V domains shown)
VH: EVQLQESGAELVRPGALVKLSCRASGFNIKDYYMHWVKQRPEQGLEWIGWIDPENGNSIYDPKFQGKASITADTSSNTAYLQLSSLTSEDTAVYYCAVDLYYGRGTLVTVSA
VL: NIMMTQSPSSLAVSAGEKVTMRCKSSQSVLYSSNQKNYLAWYQQKPGQSPKLLIYWASTRESGVPDRFTGSGSGTDFTLTISSVQAEDLAVYYCHQFLSSYTFGGGTKLEIK

- Kd [1]: 1.44 nM
- EC50 (read off the curve) [2]: ~0.02 µg/mL
- EC50 [3]: 0.0162 µg/mL
B4: anti-human CD79b monoclonal antibody clone 14 (IgG1) (antibody, V domains shown)
VH: EVQLQESGPELKKPGETVKISCKASGYTFTDYSMHWVKQAPGKGLKWMGWINTETGEPTYADDFKGRFAFSLETSASTAYLQINNLKNDDTATYFCNMDSWGQGTSVTVSS
VL: QIVLTQSPAIMSASPGEKVTMTCSASSSVSYMWWYHQKPGSSPRLLIFDTSNLASGVPVRFSGSGSGTSYSLTISRMEAEDAATYYCQQWTSYPYTFGGGTKLEIK

From patent publication US20230183371A1 (University of Texas, published 2023)
